Measured values from publication PMC2919099.

Target: T1, DRH-3 (Caenorhabditis elegans (N2), UniProt Q93413 1-1119)
T1 sequence: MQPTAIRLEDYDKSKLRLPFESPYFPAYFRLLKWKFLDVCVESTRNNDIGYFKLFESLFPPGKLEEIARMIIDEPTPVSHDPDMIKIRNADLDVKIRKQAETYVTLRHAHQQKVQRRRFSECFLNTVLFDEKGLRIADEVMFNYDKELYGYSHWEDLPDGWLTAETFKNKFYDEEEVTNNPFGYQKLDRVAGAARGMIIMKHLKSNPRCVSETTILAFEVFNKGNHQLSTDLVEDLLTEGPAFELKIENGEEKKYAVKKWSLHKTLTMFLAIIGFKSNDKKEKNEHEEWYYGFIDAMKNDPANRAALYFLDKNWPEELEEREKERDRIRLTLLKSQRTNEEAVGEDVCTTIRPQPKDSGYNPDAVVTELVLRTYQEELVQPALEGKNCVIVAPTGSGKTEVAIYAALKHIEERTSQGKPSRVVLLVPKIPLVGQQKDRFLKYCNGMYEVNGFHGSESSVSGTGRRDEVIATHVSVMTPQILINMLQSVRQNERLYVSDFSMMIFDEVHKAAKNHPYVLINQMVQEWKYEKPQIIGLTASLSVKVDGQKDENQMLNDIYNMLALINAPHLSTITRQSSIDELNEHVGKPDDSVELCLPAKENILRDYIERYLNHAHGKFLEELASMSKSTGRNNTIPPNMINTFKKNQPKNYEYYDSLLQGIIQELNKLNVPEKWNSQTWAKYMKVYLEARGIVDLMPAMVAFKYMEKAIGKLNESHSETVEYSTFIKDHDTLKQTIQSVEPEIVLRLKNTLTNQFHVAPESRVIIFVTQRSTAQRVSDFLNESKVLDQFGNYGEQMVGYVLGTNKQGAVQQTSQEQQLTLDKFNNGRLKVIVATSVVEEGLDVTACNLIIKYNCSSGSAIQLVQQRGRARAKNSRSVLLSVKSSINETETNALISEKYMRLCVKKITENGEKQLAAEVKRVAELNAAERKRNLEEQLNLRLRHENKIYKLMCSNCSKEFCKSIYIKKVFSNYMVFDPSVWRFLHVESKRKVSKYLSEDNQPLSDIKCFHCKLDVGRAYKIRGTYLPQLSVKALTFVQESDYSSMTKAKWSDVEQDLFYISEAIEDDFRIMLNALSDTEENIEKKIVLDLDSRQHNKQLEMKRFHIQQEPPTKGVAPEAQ
Assay: EMSA

B1: ds25 RNA (25 bp) (dsRNA)
RNA 1: GGGUAUAGACUGACUAGGAUCUCCC
RNA 2: GGGAGAUCCUAGUCAGUCUAUACCC
B1 showed a Kd of 11 nM.
